Measured values: patent US20260242735A1 (UNIVERSIT T BASEL, published 2026)

Key:
Assay in all cases: flow cytometry, transfected cells
[1] = biological target: human CD33 I47W (human, UniProt P20138 18-364)
[2] = biological target: human CD33 I47P (human, UniProt P20138 18-364)
[3] = biological target: human CD33 R122I (human, UniProt P20138 18-364)
[4] = biological target: human CD33 F44I (human, UniProt P20138 18-364)
[5] = biological target: human CD33 F44H (human, UniProt P20138 18-364)
[6] = biological target: human CD33 I47Y (human, UniProt P20138 18-364)
Chain of human CD33 I47Y (P20138 18-364 I47Y limits assumed): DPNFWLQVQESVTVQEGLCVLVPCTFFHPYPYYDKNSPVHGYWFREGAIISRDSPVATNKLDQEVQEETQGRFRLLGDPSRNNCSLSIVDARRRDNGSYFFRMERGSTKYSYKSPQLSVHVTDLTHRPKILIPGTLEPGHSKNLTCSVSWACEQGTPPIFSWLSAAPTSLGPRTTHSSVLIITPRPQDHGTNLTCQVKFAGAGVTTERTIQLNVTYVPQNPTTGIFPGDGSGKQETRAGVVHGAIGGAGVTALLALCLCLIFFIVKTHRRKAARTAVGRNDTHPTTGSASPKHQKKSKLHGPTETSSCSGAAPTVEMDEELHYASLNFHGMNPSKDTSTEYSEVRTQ

[7] = biological target: human CD33 F44S (human, UniProt P20138 18-364)
Chain of human CD33 F44S (P20138 18-364 F44S limits assumed): as the sequence (P20138 18-364 I47Y limits assumed) above, with F27S, Y30I counted along it

[8] = biological target: human CD33 D51K (human, UniProt P20138 18-364)
Chain of human CD33 D51K (P20138 18-364 D51K limits assumed): as the sequence (P20138 18-364 I47Y limits assumed) above, with Y30I, D34K counted along it

[9] = biological target: human CD33 F44L (human, UniProt P20138 18-364)
Chain of human CD33 F44L (P20138 18-364 F44L limits assumed): as the sequence (P20138 18-364 I47Y limits assumed) above, with F27L, Y30I counted along it

[10] = biological target: human CD33 I47L (human, UniProt P20138 18-364)
Chain of human CD33 I47L (P20138 18-364 I47L limits assumed): as the sequence (P20138 18-364 I47Y limits assumed) above, with Y30L counted along it

[11] = biological target: human CD33 R122E (human, UniProt P20138 18-364)
Chain of human CD33 R122E (P20138 18-364 R122E limits assumed): as the sequence (P20138 18-364 I47Y limits assumed) above, with Y30I, R105E counted along it

[12] = biological target: human CD33 F44D (human, UniProt P20138 18-364)
Chain of human CD33 F44D (P20138 18-364 F44D limits assumed): as the sequence (P20138 18-364 I47Y limits assumed) above, with F27D, Y30I counted along it

[13] = biological target: human CD33 I47E (human, UniProt P20138 18-364)
Chain of human CD33 I47E (P20138 18-364 I47E limits assumed): as the sequence (P20138 18-364 I47Y limits assumed) above, with Y30E counted along it

[14] = biological target: human CD33 F44V (human, UniProt P20138 18-364)
Chain of human CD33 F44V (P20138 18-364 F44V limits assumed): as the sequence (P20138 18-364 I47Y limits assumed) above, with F27V, Y30I counted along it

[15] = biological target: human CD33 F44E (human, UniProt P20138 18-364)
Chain of human CD33 F44E (P20138 18-364 F44E limits assumed): as the sequence (P20138 18-364 I47Y limits assumed) above, with F27E, Y30I counted along it

[16] = biological target: human CD33 I47S (human, UniProt P20138 18-364)
Chain of human CD33 I47S (P20138 18-364 I47S limits assumed): as the sequence (P20138 18-364 I47Y limits assumed) above, with Y30S counted along it

[17] = biological target: human CD33 I47G (human, UniProt P20138 18-364)
Chain of human CD33 I47G (P20138 18-364 I47G limits assumed): as the sequence (P20138 18-364 I47Y limits assumed) above, with Y30G counted along it

[18] = biological target: human CD33 R122T (human, UniProt P20138 18-364)
Chain of human CD33 R122T (P20138 18-364 R122T limits assumed): as the sequence (P20138 18-364 I47Y limits assumed) above, with Y30I, R105T counted along it

[19] = biological target: human CD33 I47N (human, UniProt P20138 18-364)
Chain of human CD33 I47N (P20138 18-364 I47N limits assumed): as the sequence (P20138 18-364 I47Y limits assumed) above, with Y30N counted along it

[20] = biological target: human CD33 F44Q (human, UniProt P20138 18-364)
Chain of human CD33 F44Q (P20138 18-364 F44Q limits assumed): as the sequence (P20138 18-364 I47Y limits assumed) above, with F27Q, Y30I counted along it

[21] = biological target: human CD33 I47T (human, UniProt P20138 18-364)
Chain of human CD33 I47T (P20138 18-364 I47T limits assumed): as the sequence (P20138 18-364 I47Y limits assumed) above, with Y30T counted along it

[22] = biological target: human CD33 Y49P (human, UniProt P20138 18-364)
Chain of human CD33 Y49P (P20138 18-364 Y49P limits assumed): as the sequence (P20138 18-364 I47Y limits assumed) above, with Y30I, Y32P counted along it

[23] = biological target: human CD33 Y49C (human, UniProt P20138 18-364)
Chain of human CD33 Y49C (P20138 18-364 Y49C limits assumed): as the sequence (P20138 18-364 I47Y limits assumed) above, with Y30I, Y32C counted along it

[24] = biological target: human CD33 Y49G (human, UniProt P20138 18-364)
Chain of human CD33 Y49G (P20138 18-364 Y49G limits assumed): as the sequence (P20138 18-364 I47Y limits assumed) above, with Y30I, Y32G counted along it

[25] = biological target: human CD33 F44P (human, UniProt P20138 18-364)
Chain of human CD33 F44P (P20138 18-364 F44P limits assumed): as the sequence (P20138 18-364 I47Y limits assumed) above, with F27P, Y30I counted along it

[26] = biological target: human CD33 R122S (human, UniProt P20138 18-364)
Chain of human CD33 R122S (P20138 18-364 R122S limits assumed): as the sequence (P20138 18-364 I47Y limits assumed) above, with Y30I, R105S counted along it

[27] = biological target: human CD33 I47R (human, UniProt P20138 18-364)
Chain of human CD33 I47R (P20138 18-364 I47R limits assumed): as the sequence (P20138 18-364 I47Y limits assumed) above, with Y30R counted along it

[28] = biological target: human CD33 K52D (human, UniProt P20138 18-364)
Chain of human CD33 K52D (P20138 18-364 K52D limits assumed): as the sequence (P20138 18-364 I47Y limits assumed) above, with Y30I, K35D counted along it

[29] = biological target: human CD33 F44T (human, UniProt P20138 18-364)
Chain of human CD33 F44T (P20138 18-364 F44T limits assumed): as the sequence (P20138 18-364 I47Y limits assumed) above, with F27T, Y30I counted along it

[30] = biological target: human CD33 I47F (human, UniProt P20138 18-364)
Chain of human CD33 I47F (P20138 18-364 I47F limits assumed): as the sequence (P20138 18-364 I47Y limits assumed) above, with Y30F counted along it

[31] = biological target: human CD33 Y49D (human, UniProt P20138 18-364)
Chain of human CD33 Y49D (P20138 18-364 Y49D limits assumed): as the sequence (P20138 18-364 I47Y limits assumed) above, with Y30I, Y32D counted along it

[32] = biological target: human CD33 I47Q (human, UniProt P20138 18-364)
Chain of human CD33 I47Q (P20138 18-364 I47Q limits assumed): as the sequence (P20138 18-364 I47Y limits assumed) above, with Y30Q counted along it

[33] = biological target: human CD33 R122F (human, UniProt P20138 18-364)
Chain of human CD33 R122F (P20138 18-364 R122F limits assumed): as the sequence (P20138 18-364 I47Y limits assumed) above, with Y30I, R105F counted along it

Measured: binding result

Chain of human CD33 F44I (P20138 18-364 F44I limits assumed): as the sequence (P20138 18-364 I47Y limits assumed) above, with F27I, Y30I counted along it
Chain of human CD33 R122I (P20138 18-364 R122I limits assumed): as the sequence (P20138 18-364 I47Y limits assumed) above, with Y30I, R105I counted along it
Chain of human CD33 F44H (P20138 18-364 F44H limits assumed): as the sequence (P20138 18-364 I47Y limits assumed) above, with F27H, Y30I counted along it
Chain of human CD33 I47P (P20138 18-364 I47P limits assumed): as the sequence (P20138 18-364 I47Y limits assumed) above, with Y30P counted along it
Chain of human CD33 I47W (P20138 18-364 I47W limits assumed): as the sequence (P20138 18-364 I47Y limits assumed) above, with Y30W counted along it

B1: Refmab #2 (antibody, human IgG1, V domains shown)
VH: QVQLVQSGAEVKKPGSSVKVSCKASGGTFSDYAISWVRQAPGQGLEWMGRIIPILGVADYAQKFQGRVTITADKSTRTAYMELSSLRSEDTAVYYCARNWADAFDIWGQGTMVTVSS
VL: DIQLTQSPSSLSASVGDRVTITCRASQGISSVLAWYQQKPGKAPKLLIYDASSLESGVPSRFSGSGSGTDFTLTISSLQPEDFATYYCQQFDSSITFGQGTKLEIK
no binding (tested: below 20%): all assays above
